US20200377573

Molecular target: HTRA1-inhibiting peptides (Example 3-2 and 3-3, members not named)

Protein | protease activity (decomposition of a peptide substrate)
Human matriptase (protein) VVGGTDADEGEWPWQVSLHALGQGHICGASLISPNWLVSAAHCYIDDRGFRYSDPTQWTAFLGLHDQSQRSAPGVQERRLKRIISHPFFNDFTFDYDIALLELEKPAEYSSMVRPICLPDASHVFPAGKAIWVTGWGHTQYGGTGALILQKGEIRVINQTTCENLLPQQITPRMMCVGFLSGGVDSCQGDSGGPLSSVEADGRIFQAGVVSWGDGCAQRNKPGVYTRLPLFRDWIKENTGV | did not suppress the protease activity of any of the proteases at a final inhibitor concentration of 1 micro M
Human HTRA2 (protein) AVPSPPPASPRSQYNFIADVVEKTAPAVVYIEILDRHPFLGREVPISNGSGFVVAADGLIVTNAHVVADRRRVRVRLLSGDTYEAVVTAVDPVADIATLRIQTKEPLPTLPLGRSADVRQGEFVVAMGSPFALQNTITSGIVSSAQRPARDLGLPQTNVEYIQTDAAIDFGNSGGPLVNLDGEVIGVNTMKVTAGISFAIPSDRLREFLHRGEKKNSSSGISGSQRRYIGVMMLTLSPSILAELQLREPSFPDVQHGVLIHKVILGSPAHRAGLRPGDVILAIGEQMVQNAEDVYEAVRTQSQLAVQIRRGRETLTLYVTPEVTE | did not suppress the protease activity of any of the proteases at a final inhibitor concentration of 1 micro M
Human plasmin (protein) KVYLSECKTGNGKNYRGTMSKTKNGITCQKWSSTSPHRPRFSPATHPSEGLEENYCRNPDNDPQGPWCYTTDPEKRYDYCDILECEEECMHCSGENYDGKISKTMSGLECQAWDSQSPHAHGYIPSKFPNKNLKKNYCRNPDRELRPWCFTTDPNKRWELCDIPRCTTPPPSSGPTYQCLKGTGENYRGNVAVTVSGHTCQHWSAQTPHTHNRTPENFPCKNLDENYCRNPDGKRAPWCHTTNSQVRWEYCKIPSCDSSPVSTEQLAPTAPPELTPVVQDCYHGDGQSYRGTSSTTTTGKKCQSWSSMTPHRHQKTPENYPNAGLTMNYCRNPDADKGPWCFTTDPSVRWEYCNLKKCSGTEASVVAPPPVVLLPDVETPSEEDCMFGNGKGYRGKRATTVTGTPCQDWAAQEPHRHSIFTPETNPRAGLEKNYCRNPDGDVGGPWCYTTNPRKLYDYCDVPQCAAPSFDCGKPQVEPKKCPGRVVGGCVAHPHSWPWQVSLRTRFGMHFCGGTLISPEWVLTAAHCLEKSPRPSSYKVILGAHQEVNLEPHVQEIEVSRLFLEPTRKDIALLKLSSPAVITDKVIPACLPSPNYVVADRTECFITGWGETQGTFGAGLLKEAQLPVIENKVCNRYEFLNGRVQSTELCAGHLAGGTDSCQGDSGGPLVCFEKDKYILQGVTSWGLGCARPNKPGVYVRVSRFVTWIEGVMRNN | did not suppress the protease activity of any of the proteases at a final inhibitor concentration of 1 micro M
Human chymase (protein) IIGGTECKPHSRPYMAYLEIVTSNGPSKFCGGFLIRRNFVLTAAHCAGRSITVTLGAHNITEEEDTWQKLEVIKQFRHPKYNTSTLHHDIMLLKLKEKASLTLAVGTLPFPSQFNFVPPGRMCRVAGWGRTGVLKPGSDTLQEVKLRLMDPQACSHFRDFDHNLQLCVGNPRKTKSAFKGDSGGPLLCAGVAQGIVSYGRSDAKPPAVFTRISHYRPWINQILQAN | did not suppress the protease activity of any of the proteases at a final inhibitor concentration of 1 micro M
Human tPA (protein) SYQVICRDEKTQMIYQQHQSWLRPVLRSNRVEYCWCNSGRAQCHSVPVKSCSEPRCFNGGTCQQALYFSDFVCQCPEGFAGKCCEIDTRATCYEDQGISYRGTWSTAESGAECTNWNSSALAQKPYSGRRPDAIRLGLGNHNYCRNPDRDSKPWCYVFKAGKYSSEFCSTPACSEGNSDCYFGNGSAYRGTHSLTESGASCLPWNSMILIGKVYTAQNPSAQALGLGKHNYCRNPDGDAKPWCHVLKNRRLTWEYCDVPSCSTCGLRQYSQPQFRIKGGLFADIASHPWQAAIFAKHRRSPGERFLCGGILISSCWILSAAHCFQERFPPHHLTVILGRTYRVVPGEEEQKFEVEKYIVHKEFDDDTYDNDIALLQLKSDSSRCAQESSVVRTVCLPPADLQLPDWTECELSGYGKHEALSPFYSERLKEAHVRLYPSSRCTSQHLLNRTVTDNMLCAGDTRSGGPQANLHDACQGDSGGPLVCLNDGRMTLVGIISWGLGCGQKDVPGVYTKVTNYLDWIRDNMRP | did not suppress the protease activity of any of the proteases at a final inhibitor concentration of 1 micro M
